Data published in article PMC8799657 (Nature Communications, 2022).

Key:
[1] = target: T1, soluble human transferrin receptor 1 (human, UniProt P02786); test: BLI; conditions: both partners purified
T1 construct: also called sTfR1; human sTfR1

[2] = target: T2, human transferrin receptor 1 on the cell surface (human (endogenous in erythroblasts), UniProt P02786); conditions: one partner purified
T2 construct: also called hTfR1; TfR1
T2 sequence (P02786 whole entry): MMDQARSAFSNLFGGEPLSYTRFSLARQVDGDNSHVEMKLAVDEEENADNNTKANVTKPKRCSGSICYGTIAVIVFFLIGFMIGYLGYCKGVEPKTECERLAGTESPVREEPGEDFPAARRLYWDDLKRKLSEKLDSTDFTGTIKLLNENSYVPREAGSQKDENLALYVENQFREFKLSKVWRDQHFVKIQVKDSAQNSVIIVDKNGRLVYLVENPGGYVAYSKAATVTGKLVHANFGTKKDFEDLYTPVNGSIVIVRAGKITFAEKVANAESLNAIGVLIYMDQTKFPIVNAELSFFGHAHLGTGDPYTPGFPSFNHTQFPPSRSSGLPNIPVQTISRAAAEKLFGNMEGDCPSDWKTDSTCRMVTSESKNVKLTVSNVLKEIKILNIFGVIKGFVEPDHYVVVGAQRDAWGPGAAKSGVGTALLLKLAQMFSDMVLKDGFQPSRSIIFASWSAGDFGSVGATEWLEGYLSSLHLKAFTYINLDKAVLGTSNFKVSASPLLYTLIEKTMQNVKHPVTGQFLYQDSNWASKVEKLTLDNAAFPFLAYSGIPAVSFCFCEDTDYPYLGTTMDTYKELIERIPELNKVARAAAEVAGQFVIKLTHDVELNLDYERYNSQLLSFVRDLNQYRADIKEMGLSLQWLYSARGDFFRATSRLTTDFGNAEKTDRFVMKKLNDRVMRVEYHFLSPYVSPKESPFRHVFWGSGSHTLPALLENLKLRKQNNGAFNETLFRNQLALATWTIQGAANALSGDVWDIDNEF

T1 sequence (P02786 121-760): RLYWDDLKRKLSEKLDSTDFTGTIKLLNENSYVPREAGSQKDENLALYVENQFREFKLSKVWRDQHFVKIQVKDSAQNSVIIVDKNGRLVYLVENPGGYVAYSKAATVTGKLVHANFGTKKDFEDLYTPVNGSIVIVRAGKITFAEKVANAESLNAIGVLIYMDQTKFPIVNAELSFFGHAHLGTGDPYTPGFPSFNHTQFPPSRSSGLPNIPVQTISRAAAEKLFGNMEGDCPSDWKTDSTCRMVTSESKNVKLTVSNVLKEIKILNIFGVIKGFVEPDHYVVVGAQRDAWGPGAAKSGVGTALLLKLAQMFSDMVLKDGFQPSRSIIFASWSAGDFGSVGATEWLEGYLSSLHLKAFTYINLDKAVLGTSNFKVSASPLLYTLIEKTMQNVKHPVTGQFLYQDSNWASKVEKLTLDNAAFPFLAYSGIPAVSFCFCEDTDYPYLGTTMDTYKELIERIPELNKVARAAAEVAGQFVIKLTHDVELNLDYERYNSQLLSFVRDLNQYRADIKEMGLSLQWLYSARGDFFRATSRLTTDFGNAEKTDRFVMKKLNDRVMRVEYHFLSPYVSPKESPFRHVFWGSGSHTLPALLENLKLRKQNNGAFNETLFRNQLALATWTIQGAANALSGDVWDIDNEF

| Binder | binding result [1] | binding result [2] |
| --- | --- | --- |
| Fab fragment of the mouse/human chimeric 128.1 IgG1 antibody (Fab, V domains shown, also called Fab ch128.1/IgG1; ch128.1 Fab) VH: EVQLQQSGPELVKPGASMKISCKASGYSFTGYTMNWVKQSHGENLEWIGRINPHNGGTDYNQKFKDKAPLTVDKSSNTAYMELLSLTSGDSAVYYCARGYYYYSLDYWGQGTSVTVSS VL: QIVLTQSPAIMSVSPGEKVTMTCSASSSIRYIHWYQQRPGTSPKRWIYDTSNLASGVPARFSGSGSGTSYSLTISSMEAEDAATYYCHQRNSYPWTFGGGTRLEIR | binds | – |
| mouse/human chimeric IgG1/κ antibody ch128.1/IgG1 (antibody, V domains shown) VH: EVQLQQSGPELVKPGASMKISCKASGYSFTGYTMNWVKQSHGENLEWIGRINPHNGGTDYNQKFKDKAPLTVDKSSNTAYMELLSLTSGDSAVYYCARGYYYYSLDYWGQGTSVTVSS VL: QIVLTQSPAIMSVSPGEKVTMTCSASSSIRYIHWYQQRPGTSPKRWIYDTSNLASGVPARFSGSGSGTSYSLTISSMEAEDAATYYCHQRNSYPWTFGGGTRLEIR | – | binds |
